Starred links: 1 amine or outer side, 2 acyl side, 3 side chain; linkers in the order of their positions; H or OH if unused. No end group written: not given here. NH(CH2)3(OCH2CH2)2O(CH2)3NH = C(CN[*:1])COCCOCCOCCCN[*:2]; Oregon Green = Oregon Green fluorescent reporter dye
Biological target: T1, NP-1/Fc (Neuropilin-1/Fc, R&D Systems)
T1 construct: Bought reagent; also called Npn-1
Test: competition with 250 pM ^125I-VEGF165 on NP-1/Fc-coated plates, 4° C., 2 h
Description: The next day all wells, even control wells lacking NP-1/Fc, were blocked 2 hrs with blocking buffer (1% BSA in D-PBS with 0.05% v/v Tween-20) then washed 4× with PBST (D-PBS/0.05% v/v Tween-20) before starting the assay. All points were derived from triplicate wells, and for each set of replicates in NP-1/Fc-coated wells, a companion set in the absence of the receptor was included. […] After addition of the appropriate solutions, microtiter plates were incubated at 4° C. for 2 hours. Following the incubation, plates were hand-washed 5 times with D-PBS containing 0.05% Tween-20 and 0.1% BSA. […] VEGF₁₆₅ (Cat. No. 100-20) was obtained from Peprotech.

T1 sequence (Q9QWJ9 22-855): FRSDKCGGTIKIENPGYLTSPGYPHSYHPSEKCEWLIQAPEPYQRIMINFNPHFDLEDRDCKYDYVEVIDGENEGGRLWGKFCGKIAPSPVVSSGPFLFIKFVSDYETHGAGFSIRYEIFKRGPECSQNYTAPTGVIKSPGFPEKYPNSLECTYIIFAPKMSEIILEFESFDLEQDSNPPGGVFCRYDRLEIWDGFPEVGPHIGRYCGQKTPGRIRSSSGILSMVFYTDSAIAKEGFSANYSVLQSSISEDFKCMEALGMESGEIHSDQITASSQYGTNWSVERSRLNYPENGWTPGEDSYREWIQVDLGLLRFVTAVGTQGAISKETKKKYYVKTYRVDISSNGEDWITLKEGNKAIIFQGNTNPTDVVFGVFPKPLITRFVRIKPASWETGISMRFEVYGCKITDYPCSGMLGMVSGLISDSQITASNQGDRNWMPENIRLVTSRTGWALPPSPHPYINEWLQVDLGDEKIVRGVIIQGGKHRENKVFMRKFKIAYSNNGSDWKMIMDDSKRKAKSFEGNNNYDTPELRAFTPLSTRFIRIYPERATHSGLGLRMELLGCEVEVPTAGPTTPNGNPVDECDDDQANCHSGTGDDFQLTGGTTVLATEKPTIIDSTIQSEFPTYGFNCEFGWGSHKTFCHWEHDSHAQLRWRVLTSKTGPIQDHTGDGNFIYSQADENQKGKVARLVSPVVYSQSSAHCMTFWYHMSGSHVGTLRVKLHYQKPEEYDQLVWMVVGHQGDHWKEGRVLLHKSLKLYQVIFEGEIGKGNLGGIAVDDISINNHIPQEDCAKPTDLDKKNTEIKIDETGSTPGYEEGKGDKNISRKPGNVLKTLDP

B1: Tetramer BRU-346: TKPPR-K(RPPKT)-K[K(RPPKT)TKPPR]-G-Z-OG (peptide)
chain: TKPPRKRPPKTKKRPPKTTKPPRG-{NH(CH2)3(OCH2CH2)2O(CH2)3NH-Oregon Green}
modifications: also: branched on lysine core: TKPPR units linked via C-terminal Arg to Lys side chains, letters 7-11 and 14-18 written reversed, not a linear chain
notes: also called Reverse Tetramer; tetrameric TKPPR linked to a different scaffold through the C-terminal amino acid
IC50: 8 µM
